Results reported in patent US20200131230A1 (published 2020).
Where two headings read alike, the source gives them in different places. Positions of bridges follow the written chain, without caps; N, C: chain ends. Non-standard residues stand in square brackets, D forms with d. 2Nal = N[C@@H](Cc1ccc2ccccc2c1)C(=O)O; Phg = N[C@H](C(=O)O)c1ccccc1; Tle = CC(C)(C)[C@H](N)C(=O)O; hCys = N[C@@H](CCS)C(=O)O; Nle = CCCC[C@H](N)C(=O)O

How the values were obtained:
[1] = target: T1, Thrombospondin human platelet (Calbiochem, 605225) (human, UniProt P07996 19-1170); assay: cell-based or functional assay
[2] = target: T1, Thrombospondin human platelet …; assay: cell-based or functional assay; remark: listed apart in the source
Recombinant-hTSP1 = Recombinant-hTSP1 (human, UniProt P07996 19-1170, limits assumed); assay: SPR (Biacore T200), single-cycle kinetics, recombinant hTSP1 immobilised on NTA chip
Method: First, 500 μM NiCl₂ was injected over an NTA-Chip (produced by GE Healthcare, BR100532) at a flow rate of 5 μL/min. for 1 minute to thereby activate NTA groups. Then, an EDC/NHS mixture was injected at a flow rate of 10 μL/min. for 7 minutes to thereby activate the carboxyl groups of dextran. Recombinant-hTSP1 was injected at a flow rate of 10 μL/min. for 7 minutes to immobilize the TSP1 on the substrate surfaces with activated NTA and carboxyl groups. Ethanolamine was injected at a flow rate of 10 μL/min. for 7 minutes to thereby deactivate unreacted, activated carboxyl groups.
Since Biacore T200 is highly responsive to change in DMSO concentrations, DMSO solutions were sequentially injected at concentrations of 4%, 4.4%, 4.8%, 5.2%, 5.6%, and 6% to correct for DMSO effects.
The analysis was conducted using the evaluation software provided with Biacore T100 and T200. A DMSO correction curve obtained by solvent correction measurements was applied for the analysis. Kinetics fitting was done on the difference data obtained by subtracting the baseline data from sample measurement data.

[3] = target: T1, Thrombospondin human platelet …; assay: cell-based or functional assay; remark: listed apart in the source

T1 sequence (P07996 19-1170 limits assumed): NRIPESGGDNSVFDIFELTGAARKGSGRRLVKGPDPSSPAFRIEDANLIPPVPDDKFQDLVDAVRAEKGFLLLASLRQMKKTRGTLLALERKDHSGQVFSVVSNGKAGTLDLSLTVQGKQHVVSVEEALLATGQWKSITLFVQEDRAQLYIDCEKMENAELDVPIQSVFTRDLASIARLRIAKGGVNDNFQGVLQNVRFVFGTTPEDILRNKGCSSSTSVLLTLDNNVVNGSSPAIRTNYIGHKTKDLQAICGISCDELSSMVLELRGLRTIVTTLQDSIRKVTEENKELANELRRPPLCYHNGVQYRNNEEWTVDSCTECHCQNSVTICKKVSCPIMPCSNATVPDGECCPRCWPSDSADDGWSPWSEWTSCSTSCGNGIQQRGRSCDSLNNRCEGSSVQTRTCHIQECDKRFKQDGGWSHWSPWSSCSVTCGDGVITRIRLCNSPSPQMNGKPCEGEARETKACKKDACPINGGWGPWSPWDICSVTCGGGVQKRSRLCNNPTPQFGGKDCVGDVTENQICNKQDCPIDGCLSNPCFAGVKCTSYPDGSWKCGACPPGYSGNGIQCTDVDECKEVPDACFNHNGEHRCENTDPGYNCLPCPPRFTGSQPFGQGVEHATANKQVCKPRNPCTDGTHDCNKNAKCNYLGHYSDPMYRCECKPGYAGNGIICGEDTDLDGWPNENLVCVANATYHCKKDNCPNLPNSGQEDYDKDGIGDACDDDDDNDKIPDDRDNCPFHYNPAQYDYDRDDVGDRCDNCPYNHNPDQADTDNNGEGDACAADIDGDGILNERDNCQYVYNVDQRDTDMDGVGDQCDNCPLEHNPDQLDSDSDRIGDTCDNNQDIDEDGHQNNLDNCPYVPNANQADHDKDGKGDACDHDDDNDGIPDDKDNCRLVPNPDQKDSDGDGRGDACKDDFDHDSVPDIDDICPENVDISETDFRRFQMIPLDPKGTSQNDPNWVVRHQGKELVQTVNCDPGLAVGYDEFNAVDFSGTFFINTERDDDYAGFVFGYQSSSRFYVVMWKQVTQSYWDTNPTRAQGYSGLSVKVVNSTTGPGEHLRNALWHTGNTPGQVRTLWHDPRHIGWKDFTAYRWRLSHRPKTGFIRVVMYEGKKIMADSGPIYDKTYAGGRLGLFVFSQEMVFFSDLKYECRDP
Chain of Recombinant-hTSP1 (P07996 19-1170 limits assumed): as above

Row | Binder | Cell adhesion IC50 [1] | Cell adhesion IC50 [2] | Kd (Recombinant-hTSP1) | Cell adhesion IC50 [3]
1 | {CH2CO}-[2Nal]ISGRNW[Phg]KWVC-NH2 (thioether N-12; SMILES CC[C@H](C)[C@@H]1NC(=O)[C@H](Cc2ccc3ccccc3c2)NC(=O)CSC[C@@H](C(N)=O)NC(=O)[C@H](C(C)C)NC(=O)[C@H](Cc2c[nH]c3ccccc23)NC(=O)[C@H](CCCCN)NC(=O)[C@H](c2ccccc2)NC(=O)[C@H](Cc2c[nH]c3ccccc23)NC(=O)[C@H](CC(N)=O)NC(=O)[C@H](CCCNC(=N)N)NC(=O)CNC(=O)[C@H](CO)NC1=O) [Compound 51] | 16 nM | – | – | –
2 | {CH2CO}-[2Nal]ISGKN[2Nal]VKWVC-NH2 (thioether N-12; SMILES CC[C@H](C)[C@@H]1NC(=O)[C@H](Cc2ccc3ccccc3c2)NC(=O)CSC[C@@H](C(N)=O)NC(=O)[C@H](C(C)C)NC(=O)[C@H](Cc2c[nH]c3ccccc23)NC(=O)[C@H](CCCCN)NC(=O)[C@H](C(C)C)NC(=O)[C@H](Cc2ccc3ccccc3c2)NC(=O)[C@H](CC(N)=O)NC(=O)[C@H](CCCCN)NC(=O)CNC(=O)[C@H](CO)NC1=O) [Compound 56] | 13.2 nM | – | – | –
3 | {CH2CO}-[2Nal]ISGRN[2Nal]VKWVC-NH2 (thioether N-12; SMILES CC[C@H](C)[C@@H]1NC(=O)[C@H](Cc2ccc3ccccc3c2)NC(=O)CSC[C@@H](C(N)=O)NC(=O)[C@H](C(C)C)NC(=O)[C@H](Cc2c[nH]c3ccccc23)NC(=O)[C@H](CCCCN)NC(=O)[C@H](C(C)C)NC(=O)[C@H](Cc2ccc3ccccc3c2)NC(=O)[C@H](CC(N)=O)NC(=O)[C@H](CCCNC(=N)N)NC(=O)CNC(=O)[C@H](CO)NC1=O) [Compound 28] | – | 29.4 nM | 0.55 nM | –
4 | {CH2CO}-[2Nal]ISGHNW[Nle]KWVC-NH2 (thioether N-12; SMILES CCCC[C@@H]1NC(=O)[C@H](Cc2c[nH]c3ccccc23)NC(=O)[C@H](CC(N)=O)NC(=O)[C@H](Cc2c[nH]cn2)NC(=O)CNC(=O)[C@H](CO)NC(=O)[C@H]([C@@H](C)CC)NC(=O)[C@H](Cc2ccc3ccccc3c2)NC(=O)CSC[C@@H](C(N)=O)NC(=O)[C@H](C(C)C)NC(=O)[C@H](Cc2c[nH]c3ccccc23)NC(=O)[C@H](CCCCN)NC1=O) [Compound 59] | 20.7 nM | – | – | –
5 | {CH2CO}-[2Nal]ISGRNWVKWV[hCys]-NH2 (thioether N-12; SMILES CC[C@H](C)[C@@H]1NC(=O)[C@H](Cc2ccc3ccccc3c2)NC(=O)CSCC[C@@H](C(N)=O)NC(=O)[C@H](C(C)C)NC(=O)[C@H](Cc2c[nH]c3ccccc23)NC(=O)[C@H](CCCCN)NC(=O)[C@H](C(C)C)NC(=O)[C@H](Cc2c[nH]c3ccccc23)NC(=O)[C@H](CC(N)=O)NC(=O)[C@H](CCCNC(=N)N)NC(=O)CNC(=O)[C@H](CO)NC1=O) [Compound 54] | 19.5 nM | – | – | –
6 | {CH2CO}-[2Nal]ISGKDW[Nle]KWVC-NH2 (thioether N-12; SMILES CCCC[C@@H]1NC(=O)[C@H](Cc2c[nH]c3ccccc23)NC(=O)[C@H](CC(=O)O)NC(=O)[C@H](CCCCN)NC(=O)CNC(=O)[C@H](CO)NC(=O)[C@H]([C@@H](C)CC)NC(=O)[C@H](Cc2ccc3ccccc3c2)NC(=O)CSC[C@@H](C(N)=O)NC(=O)[C@H](C(C)C)NC(=O)[C@H](Cc2c[nH]c3ccccc23)NC(=O)[C@H](CCCCN)NC1=O) [Compound 57] | 15.6 nM | – | – | –
7 | {CH2CO}-FITGRNWVKWVC-NH2 (thioether N-12; SMILES CC[C@H](C)[C@@H]1NC(=O)[C@H](Cc2ccccc2)NC(=O)CSC[C@@H](C(N)=O)NC(=O)[C@H](C(C)C)NC(=O)[C@H](Cc2c[nH]c3ccccc23)NC(=O)[C@H](CCCCN)NC(=O)[C@H](C(C)C)NC(=O)[C@H](Cc2c[nH]c3ccccc23)NC(=O)[C@H](CC(N)=O)NC(=O)[C@H](CCCNC(=N)N)NC(=O)CNC(=O)[C@H]([C@@H](C)O)NC1=O) [Compound 12] | – | – | 0.38 nM | 22.2 nM
8 | {CH2CO}-FISGRTWVKWVC-NH2 (thioether N-12; SMILES CC[C@H](C)[C@@H]1NC(=O)[C@H](Cc2ccccc2)NC(=O)CSC[C@@H](C(N)=O)NC(=O)[C@H](C(C)C)NC(=O)[C@H](Cc2c[nH]c3ccccc23)NC(=O)[C@H](CCCCN)NC(=O)[C@H](C(C)C)NC(=O)[C@H](Cc2c[nH]c3ccccc23)NC(=O)[C@H]([C@@H](C)O)NC(=O)[C@H](CCCNC(=N)N)NC(=O)CNC(=O)[C@H](CO)NC1=O) [Compound 13] | – | – | 0.096 nM | 18.7 nM
9 | {CH2CO}-[2Nal]ISGRNWVKWVC-NH2 (thioether N-12; SMILES CC[C@H](C)[C@@H]1NC(=O)[C@H](Cc2ccc3ccccc3c2)NC(=O)CSC[C@@H](C(N)=O)NC(=O)[C@H](C(C)C)NC(=O)[C@H](Cc2c[nH]c3ccccc23)NC(=O)[C@H](CCCCN)NC(=O)[C@H](C(C)C)NC(=O)[C@H](Cc2c[nH]c3ccccc23)NC(=O)[C@H](CC(N)=O)NC(=O)[C@H](CCCNC(=N)N)NC(=O)CNC(=O)[C@H](CO)NC1=O) [Compound 24] | – | – | 0.12 nM | 6.1 nM
10 | {CH2CO}-[2Nal]ISGRNWVHWVC-NH2 (thioether N-12; SMILES CC[C@H](C)[C@@H]1NC(=O)[C@H](Cc2ccc3ccccc3c2)NC(=O)CSC[C@@H](C(N)=O)NC(=O)[C@H](C(C)C)NC(=O)[C@H](Cc2c[nH]c3ccccc23)NC(=O)[C@H](Cc2c[nH]cn2)NC(=O)[C@H](C(C)C)NC(=O)[C@H](Cc2c[nH]c3ccccc23)NC(=O)[C@H](CC(N)=O)NC(=O)[C@H](CCCNC(=N)N)NC(=O)CNC(=O)[C@H](CO)NC1=O) [Compound 41] | – | 16.4 nM | 0.37 nM | –
11 | {CH2CO}-[2Nal]ISGKNWVKWVC-NH2 (thioether N-12; SMILES CC[C@H](C)[C@@H]1NC(=O)[C@H](Cc2ccc3ccccc3c2)NC(=O)CSC[C@@H](C(N)=O)NC(=O)[C@H](C(C)C)NC(=O)[C@H](Cc2c[nH]c3ccccc23)NC(=O)[C@H](CCCCN)NC(=O)[C@H](C(C)C)NC(=O)[C@H](Cc2c[nH]c3ccccc23)NC(=O)[C@H](CC(N)=O)NC(=O)[C@H](CCCCN)NC(=O)CNC(=O)[C@H](CO)NC1=O) [Compound 43] | – | 9.2 nM | 0.13 nM | –
12 | {CH2CO}-[2Nal]ISGSNWVKWVC-NH2 (thioether N-12; SMILES CC[C@H](C)[C@@H]1NC(=O)[C@H](Cc2ccc3ccccc3c2)NC(=O)CSC[C@@H](C(N)=O)NC(=O)[C@H](C(C)C)NC(=O)[C@H](Cc2c[nH]c3ccccc23)NC(=O)[C@H](CCCCN)NC(=O)[C@H](C(C)C)NC(=O)[C@H](Cc2c[nH]c3ccccc23)NC(=O)[C@H](CC(N)=O)NC(=O)[C@H](CO)NC(=O)CNC(=O)[C@H](CO)NC1=O) [Compound 44] | – | 30.3 nM | 0.58 nM | –
13 | {CH2CO}-[2Nal]ISGHNWVKWVC-NH2 (thioether N-12; SMILES CC[C@H](C)[C@@H]1NC(=O)[C@H](Cc2ccc3ccccc3c2)NC(=O)CSC[C@@H](C(N)=O)NC(=O)[C@H](C(C)C)NC(=O)[C@H](Cc2c[nH]c3ccccc23)NC(=O)[C@H](CCCCN)NC(=O)[C@H](C(C)C)NC(=O)[C@H](Cc2c[nH]c3ccccc23)NC(=O)[C@H](CC(N)=O)NC(=O)[C@H](Cc2c[nH]cn2)NC(=O)CNC(=O)[C@H](CO)NC1=O) [Compound 42] | – | 32 nM | 0.44 nM | –
14 | {CH2CO}-[2Nal]ISGRNWVKW[Phg]C-NH2 (thioether N-12; SMILES CC[C@H](C)[C@@H]1NC(=O)[C@H](Cc2ccc3ccccc3c2)NC(=O)CSC[C@@H](C(N)=O)NC(=O)[C@H](c2ccccc2)NC(=O)[C@H](Cc2c[nH]c3ccccc23)NC(=O)[C@H](CCCCN)NC(=O)[C@H](C(C)C)NC(=O)[C@H](Cc2c[nH]c3ccccc23)NC(=O)[C@H](CC(N)=O)NC(=O)[C@H](CCCNC(=N)N)NC(=O)CNC(=O)[C@H](CO)NC1=O) [Compound 52] | 10.3 nM | – | – | –
15 | {CH2CO}-[2Nal]ISGRNWVKW[Tle]C-NH2 (thioether N-12; SMILES CC[C@H](C)[C@@H]1NC(=O)[C@H](Cc2ccc3ccccc3c2)NC(=O)CSC[C@@H](C(N)=O)NC(=O)[C@H](C(C)(C)C)NC(=O)[C@H](Cc2c[nH]c3ccccc23)NC(=O)[C@H](CCCCN)NC(=O)[C@H](C(C)C)NC(=O)[C@H](Cc2c[nH]c3ccccc23)NC(=O)[C@H](CC(N)=O)NC(=O)[C@H](CCCNC(=N)N)NC(=O)CNC(=O)[C@H](CO)NC1=O) [Compound 53] | 15.9 nM | – | – | –
